Measured values as given in patent publication US11389516B2, “Composition comprising UNE-L domain of leucyl-tRNA synthetase as effective ingredient for augmenting muscle” (GACHON UNIVERSITY OF INDUSTRY-ACADEMIC COOPERATION …, priority 2017, dated 2022).

Columns and labels:
[1] = test system: S6K1 phosphorylation (mTORC1 activation); test: Amino acid mediated mTORC1 activation through S6K1 phosphorylation, Western blotting, HEK293 cells treated with SAR405; assay type: cell-based
Protocol: Particularly, HEK293 cells were transducted with lentivirus expressing LRS shRNA (shLRS) or scrambled sequence shRNA (control). The cells were cultured in DMEM supplemented with 10% fetal bovine serum (FBS) in a 37° C., 5% CO2 incubator for 3 days. As for the LRS shRNA, shLRS-1 (TRCN0000290440) or shLRS-2 (TRCN0000290511) was used. As for the scrambled sequence shRNA, the sRNA previously described (Yoon, et al., J Cell Biol., 2011 195(3); 435-447) was used. Lentivirus packaging and transduction were performed according to the methods described in the following paper (Sun, et al., Proc Natl Acad Sci USA., 2008, 105(24); 8286-8291). The simultaneous expression of Vps15 and Vps34 was necessary for the stability and activity of Vps34, so the cells were transfected with bicistronic Myc-Vps34/V5-Vps15 plasmid (Yan, et al., Biochem J., 2009, 417(3); 747-755), followed by culture in the absence of FBS for overnight. On the next day, the cells were cultured in DMEM without leucine or amino acid for 2 hours, followed by stimulating the cells with 0.8 mM leucine or amino acids at the same concentration as DMEM for 30 minutes. The cell lysate was analyzed by Western blotting according to the conventional method. The intensity of the bands obtained by Western blotting was quantified by measuring the X ray film image density using Image J software.
HEK293 cells were treated with SAR405 (APExBIO, US), a Vps34 specific inhibitor, and then amino acid mediated mTORC1 activation was investigated through S6K1 phosphorylation. […] Western blotting was performed by stimulating cells with amino acids by the same manner as described in Example <1-1> except that HEK293 cells were treated with SAR405 at the concentration of 3 μM and co-transfected with Myc-LRS and Myc-S6K1. At this time, the cells untreated with SAR405 were used as the control. All the quantification data was presented as mean±standard deviation of the values obtained from at least three independent experiments performed separately. Statistical significance was analyzed by student's t-test (*p≤0.05. **p≤0.01).

Vps34 = target: T1, Vps34 (Mus musculus, UniProt Q6PF93); test: In vitro Vps34 lipid kinase assay on Vps34 immune complex from MEF cells with added purified GST protein; assay type: biochemical; conditions: FIG. 7
T1 construct: endogenous in cells; host or cells: MEF cells
Protocol: To perform in vitro Vps34 lipid kinase assay, the Vps34 immunocomplex was washed with PBS containing 1% NP-40 three times, with PBS containing 100 mM Tris (pH 7.4) containing 500 mM LiCl three times, and with TNE buffer (10 mM Tris (pH 7.4), 100 mM NaCl and 1 mM EDTA) twice, then 2 mg/ml of […] and 10 μCi ^32P-γ-ATP (PerkinElmer) were added to TNE buffer. The reaction was terminated by adding 20 μl of 8 N HCl and lipid was extracted with 160 μl of CHCl3:MeOH (1:1). ^32P-PI(3)P was separated on a thin layer chromatography plate (EMD Chemicals Inc.) using CHCl3:MeOH:NH4OH:water (60:47:2:11.3) as a solvent, followed by measuring Vps34 activity by radiograph. The activity of Vps34 was quantified by standardizing the Vps34 amount included in the immune precipitate determined by quantification of Western blotting. To measure the amount of intracellular PI(3)P, ELISA-format assay was performed according to the manufacturer's protocol, leading to quantification of the amount of PI(3)P from nonlinear fitting of the PI(3)P standard. All quantificative data was presented as mean±standard deviation of the values obtained from at least three independent experiments performed separately. Statistical significance was analyzed by student's t-test ([…]. **p≤0.01).
Particularly, MEF cells were cultured in the absence of FBS for overnight. On the next day, the cells were cultured in leucine-free DMEM for 2 hours. Anti-Atg14L antibody was added in the cell lysate thereto, followed by immunoprecipitation to eliminate Atg14L from the cell lysate. Then, anti-Vps34 antibody was added thereto, followed by immunoprecipitation of Vps34. The Vps34 immune complex was placed in TNE buffer supplemented with 2 mg/ml of PI, 10 μCi ^32P-γ-ATP (PerkinElmer) and 3.75 μg of GST protein in the presence or absence of leucine for 20 minutes at 30° C. […] All the quantification data was presented as mean±standard deviation of the values obtained from at least three independent experiments performed separately. Statistical significance was analyzed by student's t-test (*p≤0.05. **p≤0.01).

[2] = test system: S6K1 phosphorylation (mTORC1 activity); test: Western blotting of phosphorylated S6K1 in knock-down HEK293 cells with exogenous phosphatidic acid; assay type: cell-based; conditions: 100 μM PA, amino acid stimulation
Protocol: Particularly, HEK293 cells were transducted with lentivirus expressing LRS shRNA (shLRS) or scrambled sequence shRNA (control). The cells were cultured in DMEM supplemented with 10% fetal bovine serum (FBS) in a 37° C., 5% CO2 incubator for 3 days. As for the LRS shRNA, shLRS-1 (TRCN0000290440) or shLRS-2 (TRCN0000290511) was used. As for the scrambled sequence shRNA, the sRNA previously described (Yoon, et al., J Cell Biol., 2011 195(3); 435-447) was used. Lentivirus packaging and transduction were performed according to the methods described in the following paper (Sun, et al., Proc Natl Acad Sci USA., 2008, 105(24); 8286-8291). […] The cell lysate was analyzed by Western blotting according to the conventional method. The intensity of the bands obtained by Western blotting was quantified by measuring the X ray film image density using Image J software.
Particularly, HEK293 cells were transduced with shLRS, shRagD lentivirus or lentivirus expressing scrambled sequence shRNA (control), and then stimulated with amino acids by the same manner as described in Example <1-1> in the presence or absence of 100 μM phosphatidic acid (PA), a product of PLD1. Lysates of the cells were analyzed by Western blotting according to the method conventionally performed.

C2C12 cells = test: MHC/DAPI immunostaining of differentiated C2C12 cells (differentiation index, fusion index, myotube size); assay type: cell-based, mouse; conditions: given as NP-UNE-L, three days differentiation, FIG. 15
Protocol: Particularly, to investigate the role of the UNE-L domain of LRS, NP-UNE-L was constructed by binding the UNE-L domain of LRS to nanoparticles (NP) through the conventional method.
C2C12 cells, the mouse muscle cells, were maintained in DMEM supplemented with 4.5 g/l of glucose and 10% FBS in a 37° C., 7.5% CO2 incubator. To induce myogenesis, the cells were cultured on a plate coated with 0.2% gelatin until 100% confluence and the culture medium was replaced with the differentiation-inducing medium containing 2% horse serum. The culture medium was replaced every day for 3 days. During differentiation for three days, the differentiation-inducing medium treated group, the differentiation-inducing medium and NP-UNE-L treated group, and the differentiation-inducing medium and NP treated group were compared.
After the differentiation of C2C12 cells for three days, Western blotting was performed with the cell lysate according to the conventional method. To compare the differentiation level of C2C12 cells, C2C12 cells were fixed and immunostained with MHC, a myocyte differentiation marker, and 4′,6-diamidino-2-phenylindole (DAPI), a cell nucleus marker (Yoon et al. 2013 Molecular biology of the cell, 24(23) 3754-3763). […] The differentiation index was calculated as the percentage of nuclei in the myotubes stained with MHC and the fusion index was calculated as the percentage of nuclei in the myotubes with two or more nuclei stained with MHC. The myotube size was calculated as the number of nuclei in the myotube stained with MHC.

[3] = test system: tibialis anterior (TA) muscles; test: Muscle regeneration after BaCl2 induced muscle injury, NP-UNE-L injected with BaCl2; assay type: in vivo, BL6 mice; conditions: given as NP-UNE-L with BaCl2 into TA, vs NP in contralateral TA, 7 days, FIG. 16
Protocol: Particularly, BaCl2 (prepared in saline at the concentration of 1.2% wt/vol: 50 μl) was injected into the tibialis anterior (TA) muscles of 10-week-old BL6 mice to induce muscle injury (Sun et al., 2011, J. Cell Biol. 192, 69-81). NP-UNE-L was injected with BaCl2 on the left side and NP was injected with BaCl2 on the right side. 7 days later, the mice were sacrificed and the tibialis anterior muscles were separated and placed in 2-methylbutane which was coldly prepared in liquid nitrogen, followed by embedding in TBS tissue freezing medium. Cryosection was performed at −20° C. to the thickness of 10 μm by using a cryostat (Microm HM550; Thermo Fisher Scientific). The prepared sections were placed on non-coated slides, followed by staining with hematoxylin and eosin (H&E). The stained slides were observed through a 10× dry objective lens of a microscope (DMI 4000B; Leica). The stained images were photographed with a 24-bit image camera (RETIGA EXi; Q Imaging) and the regenarating myofiber cross section area (CSA) was measured by image J. CSA was measured only in the myofibers showing the characteristics of regenerating myofiber with the nucleus in the center.

tibialis anterior (TA) = test: Muscle regeneration after BaCl2 induced muscle injury in AAV-UNE-L injected tibialis anterior; assay type: in vivo, BL6 mice; conditions: expressed from AAV-UNE-L in TA, vs AAV-GFP contralateral
Protocol: Particularly, AAV-UNE-L was injected into the left tibialis anterior (TA) of 10-week-old BL6 mice and AAV-GFP was injected into the right tibialis anterior (TA) of 10-week-old BL6 mice, and after 7 weeks, BaCl2 (prepared in saline at the concentration of 1.2% wt/vol: 50 μl) was injected to induce muscle injury (Sun et al., 2011, J. Cell Biol. 192, 69-81). 7 days later, the mice were sacrificed and the tibialis anterior muscles were separated and fixed in 10% paraformaldehyde, followed by embedding in paraffin. The section was performed to the thickness of 10 μm, and the prepared sections were placed on non-coated slides, followed by staining with hematoxylin and eosin (H&E). The stained slides were observed through a 10× dry objective lens of a microscope (Olympus CKX3-Houn Microscope). The stained images were photographed with 24-bit image and the regenarating myofiber cross section area (CSA) was measured by image J. CSA was measured only in the myofibers showing the characteristics of regenerating myofiber with the nucleus in the center.

T1 sequence (Q6PF93 whole entry): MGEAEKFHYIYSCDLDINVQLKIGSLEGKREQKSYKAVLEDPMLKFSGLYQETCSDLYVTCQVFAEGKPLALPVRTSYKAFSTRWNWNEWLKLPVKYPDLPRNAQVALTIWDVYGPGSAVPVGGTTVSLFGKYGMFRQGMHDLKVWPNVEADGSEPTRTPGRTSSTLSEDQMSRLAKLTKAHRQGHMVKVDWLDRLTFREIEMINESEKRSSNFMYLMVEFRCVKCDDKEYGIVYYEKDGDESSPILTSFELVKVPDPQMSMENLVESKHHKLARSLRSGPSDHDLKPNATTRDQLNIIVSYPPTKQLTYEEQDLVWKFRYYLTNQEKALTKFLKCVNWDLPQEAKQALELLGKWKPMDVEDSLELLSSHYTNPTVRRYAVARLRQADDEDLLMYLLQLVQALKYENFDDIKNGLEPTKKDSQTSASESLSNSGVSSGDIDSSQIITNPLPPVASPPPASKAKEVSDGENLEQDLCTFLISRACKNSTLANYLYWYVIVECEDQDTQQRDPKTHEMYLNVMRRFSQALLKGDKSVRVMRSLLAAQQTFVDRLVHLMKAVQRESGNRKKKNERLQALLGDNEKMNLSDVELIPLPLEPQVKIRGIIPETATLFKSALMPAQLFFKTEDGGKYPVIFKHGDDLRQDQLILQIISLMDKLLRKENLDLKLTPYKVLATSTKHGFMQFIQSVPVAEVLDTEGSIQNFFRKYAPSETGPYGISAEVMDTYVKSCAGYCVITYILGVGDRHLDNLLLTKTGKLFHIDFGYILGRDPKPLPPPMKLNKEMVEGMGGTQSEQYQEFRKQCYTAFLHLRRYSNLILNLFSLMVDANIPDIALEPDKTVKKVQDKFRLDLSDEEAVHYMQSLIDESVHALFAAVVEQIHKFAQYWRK
T1 sequence (Q8VD65 whole entry partner): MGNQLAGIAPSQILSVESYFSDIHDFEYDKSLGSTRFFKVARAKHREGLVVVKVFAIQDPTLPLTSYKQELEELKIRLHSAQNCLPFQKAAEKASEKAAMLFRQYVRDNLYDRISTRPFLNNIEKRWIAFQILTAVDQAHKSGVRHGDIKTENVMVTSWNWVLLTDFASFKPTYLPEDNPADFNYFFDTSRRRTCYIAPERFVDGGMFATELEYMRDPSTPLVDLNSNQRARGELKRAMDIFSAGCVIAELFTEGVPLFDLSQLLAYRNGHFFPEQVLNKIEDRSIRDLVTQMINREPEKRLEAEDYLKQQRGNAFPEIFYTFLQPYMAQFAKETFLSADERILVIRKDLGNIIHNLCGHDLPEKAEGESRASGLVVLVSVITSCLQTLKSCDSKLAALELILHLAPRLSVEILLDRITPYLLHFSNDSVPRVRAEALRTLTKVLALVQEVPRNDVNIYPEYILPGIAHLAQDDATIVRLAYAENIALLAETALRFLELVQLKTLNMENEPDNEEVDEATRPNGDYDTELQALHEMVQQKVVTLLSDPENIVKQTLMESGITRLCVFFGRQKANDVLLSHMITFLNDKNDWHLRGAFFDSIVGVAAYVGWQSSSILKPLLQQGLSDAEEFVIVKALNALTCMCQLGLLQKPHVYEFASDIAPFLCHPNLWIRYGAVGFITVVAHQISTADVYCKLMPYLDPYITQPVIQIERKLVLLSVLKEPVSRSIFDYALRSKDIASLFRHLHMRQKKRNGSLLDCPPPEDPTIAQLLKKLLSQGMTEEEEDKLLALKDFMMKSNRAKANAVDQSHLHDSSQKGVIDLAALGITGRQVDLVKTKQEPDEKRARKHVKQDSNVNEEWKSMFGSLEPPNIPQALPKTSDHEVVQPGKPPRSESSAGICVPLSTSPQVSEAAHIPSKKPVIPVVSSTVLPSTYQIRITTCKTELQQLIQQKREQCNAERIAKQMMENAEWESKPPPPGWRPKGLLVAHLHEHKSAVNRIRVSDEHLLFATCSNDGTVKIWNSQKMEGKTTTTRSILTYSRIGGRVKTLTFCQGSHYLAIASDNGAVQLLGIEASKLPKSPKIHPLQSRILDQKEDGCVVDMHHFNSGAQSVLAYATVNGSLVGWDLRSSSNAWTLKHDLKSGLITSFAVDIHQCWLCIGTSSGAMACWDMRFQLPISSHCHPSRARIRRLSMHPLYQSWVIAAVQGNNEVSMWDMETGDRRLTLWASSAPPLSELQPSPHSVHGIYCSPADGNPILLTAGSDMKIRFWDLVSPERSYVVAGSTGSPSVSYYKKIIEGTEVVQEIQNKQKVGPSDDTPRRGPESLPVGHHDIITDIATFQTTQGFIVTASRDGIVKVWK

Molecule: C[C@@H]1COCCN1c1cc(=O)n2c(n1)N(Cc1cncc(Cl)c1)[C@H](C(F)(F)F)CC2 [SAR405]
- S6K1 phosphorylation increased by LRS overexpression ([1]; HEK293 cells co-transfected with Myc-LRS and Myc-S6K1, SAR405 3 μM, FIG. 3C): reduced
- S6K1 phosphorylation induced by total amino acids ([1]; HEK293 cells, FIG. 3B): reduced
- concentration at which S6K1 phosphorylation was completely inhibited ([1]; HEK293 cells, tested at 0.1, 0.3, 1, 3 and 10 μM, amino acid stimulation): 3 µM

Molecule: GST-LRS protein: purified GST-LRS (leucyl-tRNA synthetase) protein expressed in E. coli BL21
- activity of Vps34 compared to the GST control (Vps34; purified protein added to Vps34 immune complex): about 3 times
- activity of Vps34 with leucine stimulation (Vps34; purified protein added to Vps34 immune complex, in the presence of leucine): further increased

Molecule: LRS mutation (F50A/Y52A): leucine binding deficient mutant of LRS
- activation of Vps34 (Vps34; regardless of the presence or absence of leucine stimulation): did not induce the activation of Vps34

Molecule: phosphatidic acid [PA]
- amount of phosphorylated S6K1 ([2]; LRS knocked-down, FIG. 11): increased again
- amount of S6K1 phosphorylated ([2]; both LRS and RagD knocked-down): partially increased

B1: UNE-L domain of LRS: UNE-L domain of leucyl-tRNA synthetase C-terminus, polypeptide of the amino acid sequence SEQ. ID. NO: 1 (protein, listed as Homo sapiens)
chain: PGVSVSLVNPQPSNGHFSTKIEIRQGDNCDSIIRRLMKMNRGIKDLSKVKLMRFDDPLLGPRRVPVLGKEYTEKTPISEHAVFNVDLMSKKIHLTENGIRVDIGDTIIYLVH
- differentiation index of C2C12 cells (C2C12 cells): increased
- fusion index of C2C12 cells (C2C12 cells): increased
- myotube size (C2C12 cells): increased
- CSA of the muscle fibers generated during muscle regeneration [3]: increased
- CSA of the muscle fibers generated during muscle regeneration (tibialis anterior (TA); BaCl2 after 7 weeks, 7 days later, FIGS. 18A and 18B): increased
- mean value of CSA (tibialis anterior (TA); FIG. 18C): increased significantly
